From US20140322220A1 (Bayer, published 2014) come the findings set out here.

Test [1] addresses T1, hFGFR1β-Fc (IIIc) (human, UniProt P11362-14 22-285, limits assumed, biotinylated with biotin-LC-NHS).
T1 construct: Bought, R&D Systems 661-FR
T1 sequence (looked up): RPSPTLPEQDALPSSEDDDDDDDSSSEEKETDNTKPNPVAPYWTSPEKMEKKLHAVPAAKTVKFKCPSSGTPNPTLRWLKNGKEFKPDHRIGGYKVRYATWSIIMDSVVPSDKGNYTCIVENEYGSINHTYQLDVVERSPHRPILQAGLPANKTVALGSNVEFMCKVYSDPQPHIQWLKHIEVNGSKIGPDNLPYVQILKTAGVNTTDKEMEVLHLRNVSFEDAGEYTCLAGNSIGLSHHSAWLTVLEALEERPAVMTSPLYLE
Kind of test: ELISA on coated biotinylated Fc fusion. How it is done:
(§1) For the ELISA 96-well plates pre-coated with streptavidin (Pierce, 15500) were coated over night at 4° C. with 1 μg/ml biotinylated protein. Wells coated with biotinylated TRAIL-Fc served as a reference. The next day plates were washed 3 times with PBST, treated with blocking reagent, and washed again 3 times with PBST. 100 μl of purified Fabs (1 μg/ml) were added and incubated for 1 h at r.t. After washing 3 times with PBST, an anti-hIgG (Fab-specific) coupled to HRP (1:2500 diluted; Sigma; A 0293) was added and incubated for 1 h at Lt. Color reaction was developed by addition of 50 μl TMB (Invitrogen, 2023) and stopped after 5-15 min by adding 50 μl H₂SO₄ (Merck, 1120801000). Colorimetric reaction was recorded at […] in a plate reader (Tecan). Wells containing TRAIL-Fc were used as background values and the signal to background ratios were calculated as summarized in Table 4.

Test [2] has as its target T2, hFGFR3-Fc (IIIb) (human, UniProt P22607-2 23-377, biotinylated with biotin-LC-NHS).
T2 construct: Bought, R&D Systems 1264-FR
T2 sequence (looked up): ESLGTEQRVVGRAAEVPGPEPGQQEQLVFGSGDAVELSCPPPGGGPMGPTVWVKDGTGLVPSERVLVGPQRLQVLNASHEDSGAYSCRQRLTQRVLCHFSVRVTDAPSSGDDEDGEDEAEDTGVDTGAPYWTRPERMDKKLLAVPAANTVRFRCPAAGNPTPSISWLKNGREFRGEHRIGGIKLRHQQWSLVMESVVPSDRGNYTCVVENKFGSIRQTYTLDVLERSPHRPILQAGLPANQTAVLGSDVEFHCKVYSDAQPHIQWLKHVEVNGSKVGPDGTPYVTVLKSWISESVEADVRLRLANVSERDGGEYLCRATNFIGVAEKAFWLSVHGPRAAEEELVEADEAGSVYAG
Kind of test: ELISA on coated biotinylated Fc fusion. The protocol: as §1
A general note: In an ELISA, binding on a coated surface is turned into a signal by an enzyme label.

Test [3] has as its target T3, hFGFR4-Fc (human, UniProt P22455 22-369, biotinylated with biotin-LC-NHS).
T3 construct: Bought, R&D Systems, printed Cat. No. 685-MF
T3 sequence (looked up): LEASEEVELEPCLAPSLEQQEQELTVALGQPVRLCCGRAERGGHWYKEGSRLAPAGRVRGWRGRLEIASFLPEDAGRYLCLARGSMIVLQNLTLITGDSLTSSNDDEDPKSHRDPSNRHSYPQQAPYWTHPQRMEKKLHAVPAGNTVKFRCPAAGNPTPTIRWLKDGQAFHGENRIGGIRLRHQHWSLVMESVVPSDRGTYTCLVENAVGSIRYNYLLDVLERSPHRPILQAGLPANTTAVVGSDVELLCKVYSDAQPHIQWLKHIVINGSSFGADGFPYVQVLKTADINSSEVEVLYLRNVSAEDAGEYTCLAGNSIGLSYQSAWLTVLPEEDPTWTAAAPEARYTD
The test is described as follows: ELISA on coated biotinylated Fc fusion. How it is done: as §1

Test [4] concerns the target T4, mFGFR2β-Fc (IIIb) (murine, UniProt P21803-2 22-263, limits assumed, biotinylated with biotin-LC-NHS).
T4 construct: Bought, R&D Systems 708-MF
Kind of test: ELISA, 1 ug/ml Fab on coated antigen; grade of signal to background (+ 2-3, ++ 3-5, +++ >5). How it is done:
as §1

In test [5] the target is T5, hFGFR2α-Fc (IIIb) (human, UniProt P21802 22-377, biotinylated with biotin-LC-NHS).
T5 construct: Bought, R&D Systems 663-FR, soluble Fc fusion
T5 chain: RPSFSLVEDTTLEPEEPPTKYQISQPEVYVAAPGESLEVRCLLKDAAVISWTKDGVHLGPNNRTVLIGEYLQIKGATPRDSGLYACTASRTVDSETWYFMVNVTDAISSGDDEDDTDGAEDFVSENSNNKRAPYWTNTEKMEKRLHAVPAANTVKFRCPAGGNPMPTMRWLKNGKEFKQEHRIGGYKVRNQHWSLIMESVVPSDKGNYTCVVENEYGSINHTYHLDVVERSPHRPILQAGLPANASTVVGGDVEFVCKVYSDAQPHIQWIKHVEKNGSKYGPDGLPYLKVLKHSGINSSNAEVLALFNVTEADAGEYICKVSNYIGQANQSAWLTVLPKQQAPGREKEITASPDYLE
Described as above. The protocol: as §1

For test [6], the target named is T6, hFGFR2β-Fc (IIIb) (human, UniProt P21802 22-377, biotinylated with biotin-LC-NHS).
T6 construct: also called FGFR2-2β Fc (IIIb)
T6 chain: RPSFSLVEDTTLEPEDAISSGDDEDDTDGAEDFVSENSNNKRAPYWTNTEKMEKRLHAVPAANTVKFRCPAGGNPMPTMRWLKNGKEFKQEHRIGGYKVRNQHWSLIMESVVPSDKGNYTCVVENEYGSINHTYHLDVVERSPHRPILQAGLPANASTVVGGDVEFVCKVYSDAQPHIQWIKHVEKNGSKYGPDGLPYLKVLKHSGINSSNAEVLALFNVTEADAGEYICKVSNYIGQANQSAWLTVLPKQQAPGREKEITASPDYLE
The description is as above. How it is done: as §1

Test [7] concerns the target T7, recombinant human FGFR2 (Met 1-Glu 377) with C-terminal polyhistidine tag (human, UniProt P21802 22-377).
T7 construct: The range is that of the expressed DNA and begins at Met 1; also called His-tagged FGFR2; recombinant human FGFR2-IIIc molecule
The test is described as follows: protein binding ELISA, antibody captured by anti-human IgG Fc, FGFR2-His titrated. An excerpt: (§2) Two different types of ELISA were used to determine the binding improvement of mutated variants: a) Peptide Binding ELISA: a synthetic peptide comprising the amino acid sequence of the epitope linked C-terminally to a biotinylated lysine […]-Ttds-Lys(Biotin) (peptide sequence derived from SEQ ID NO:63, synthesized by JPT Peptide Technology GmbH, Berlin, Germany), and b) Recombinant Protein Binding ELISA: recombinant human FGFR2 (DNA sequence of human FGFR2 (NP 000132.3) Met 1-Glu 377, fused with a polyhistidine tag at the C-terminus; #10824-1-1081-1, Sin θ Biological Inc., Beijing, China).
(§3) Briefly, in both ELISA formats MTP plates (384 well Maxisorp, Nunc) were coated with 20 μl, anti-human IgG Fc specific (#12136; sigma) at 2.2 μg/ml for 2.5 h at 37° C. in coating buffer (#121125 Candor Bioscience GmbH). […] Anti-FGFR2 variants were immobilized in concentrations of 0.035 μg/ml (peptide based assay) or 0.2 μg/ml (recombinant human FGFR2 protein based assay) in 10% Smart Block in PBST depending on the format and variants to be analyzed by incubation of 20 μl for one hour at 20-22° C. After one washing step using 50 μl PBST, 20 μl quadruplets of the antigen dilution series in 10% SmartBlock in PBST with a maximum concentration of 100 nM were added and incubated for 1 h at 20-22° C. and the washing step was repeated 3 times. For the detection of the biotinylated epitope peptide 20 μl of streptavidine/POD conjugate (# S5512, Sigma) in a 1:1000 dilution in 10% SmartBlock in PBST were applied for one hour at 20-22° C. For the detection of the recombinant FGFR2 protein 20 μl of anti-His/HRP conjugate (#71840, novagen) in a 1:10000 dilution in 10% SmartBlock in PBST were applied for one hour at 20-22° C. After 3 washing steps 20 μl of 10 μM amplex red substrate (# A12222, Invitrogen) in 50 mM Sodium hydrogen phosphate, pH 7.6, were added and the fluorescence signal was detected using a common fluorescence reader, e.g. Tecan M1000. EC50 values were evaluated by fitting the data (Sigmoida) dose-response, variable slope, bottom set to background; GraphPad Prism software).

The target in test [8] is T8, RPSFSLVEDTTLEPEG-Ttds-Lys(Biotin) (human).
T8 construct: Synthesized by JPT Peptide Technology
T8 peptide: RPSFSLVEDTTLEPEG[Ttds]K(Biotin)
Kind of test: peptide binding ELISA, antibody captured by anti-human IgG Fc, biotinylated peptide titrated.
Excerpt: as §2, §3

Test [9] has as its target T8, RPSFSLVEDTTLEPEG-Ttds-Lys(Biotin). The test is described as follows: peptide binding ELISA; against TPP-1403.
Excerpt: as §2, §3

Test [10] concerns the target T7, recombinant human FGFR2 (Met 1-Glu 377) …. The test is described as follows: protein binding ELISA; against TPP-1403.
Excerpt: as §2, §3

Numbered stars: 1 amine (or outer) side, 2 acyl side, 3 side chain; on linkers, the order of the positions; unused ones are H or OH. Square brackets hold non-standard residues; d marks the D form. Ends that are not written are not given here. * marks the point of attachment. Biotin = O=C1N[C@H]2[C@H](CS[C@H]2CCCCC(=O)*)N1; Ttds = O=C(CCC(=O)[*:2])NCCCOCCOCCOCCCN[*:1] A value given as a limit tells only on which side of the number the result lay.

T4 sequence (P21803 other isoform, or with tags, fused parts or gaps limits assumed): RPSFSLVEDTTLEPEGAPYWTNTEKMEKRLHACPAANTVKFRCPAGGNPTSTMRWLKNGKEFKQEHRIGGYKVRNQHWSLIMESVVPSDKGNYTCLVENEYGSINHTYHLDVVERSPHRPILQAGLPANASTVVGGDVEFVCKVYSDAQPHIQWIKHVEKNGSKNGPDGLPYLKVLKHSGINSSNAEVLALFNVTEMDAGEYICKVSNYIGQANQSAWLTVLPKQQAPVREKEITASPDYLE

B1: M054-A05 (soluble Fab) (Fab, V domains shown)
VH: EVQLLESGGGLVQPGGSLRLSCAASGFTFSNYGMYWVRQAPGKGLEWVAVISYDGTNKYYVDSVKGRFTISRDNSKNTLYLQMNSLRAEDTAVYYCAKDLPKWGGFDSWGQGTLVTVSS
VL: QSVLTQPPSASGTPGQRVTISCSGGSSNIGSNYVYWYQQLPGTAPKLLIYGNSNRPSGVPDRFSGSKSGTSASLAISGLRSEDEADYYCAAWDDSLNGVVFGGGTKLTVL
notes: Soluble Fab from E. coli, purified through its His-tag
For B1, the binding result in test [1], in [2] and in test [3] was “no binding” throughout. The “ELISA signal to background ratio” value is more than 5 ratio in test [4], more than 5 ratio in [5] and 3 to 5 ratio in test [6].

B2: M017-B02 (soluble Fab) (Fab, V domains shown)
VH: EVQLLESGGGLVQPGGSLRLSCAASGFTFRTSGMHWVRQAPGKGLEWVAVISYDGSNKYYADSVKGRFTISRDNSKNTLYLQMNSLRAEDTAVYYCARESPGYDFEYWGQGTLVTVSS
VL: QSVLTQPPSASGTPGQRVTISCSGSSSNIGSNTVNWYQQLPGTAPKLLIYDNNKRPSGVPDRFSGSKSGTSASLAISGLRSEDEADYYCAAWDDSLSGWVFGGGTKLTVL
notes: as for B1
Turning to B2, the binding result in [1], in [2] and in [3] was “no binding” in each case. The “ELISA signal to background ratio” value in test [4], in [5] and in test [6] was more than 5 ratio throughout.

B3: M054-D03 (soluble Fab) (Fab, V domains shown)
VH: EVQLLESGGGLVQPGGSLRLSCAASGFTFSNYGMHWVRQAPGKGLEWVAVISYDGSNKYYADSVKGRFTISRDNSKNTLYLQMNSLRAEDTAVYYCAKETNDVPFDYWGQGTLVTVSS
VL: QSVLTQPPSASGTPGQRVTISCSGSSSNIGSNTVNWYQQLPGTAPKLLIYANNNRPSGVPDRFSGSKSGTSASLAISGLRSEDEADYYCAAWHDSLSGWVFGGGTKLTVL
notes: as for B1
As for B3, the binding result in [1], in [2] and in test [3] was “no binding” in each case. Further, the results for the “ELISA signal to background ratio” value in test [4], in [5] and in test [6] were 3 to 5 ratio, 3 to 5 ratio and 2 to 3 ratio, respectively.

B4: M047-D08 (soluble Fab) (Fab, V domains shown)
VH: EVQLLESGGGLVQPGGSLRLSCAASGFTFRTSGMHWVRQAPGKGLEWVAVISYDGSNKYYADSVKGRFTISRDNSKNTLYLQMNSLRAEDTAVYYCARESPGYDFEYWGQGTLVTVSS
VL: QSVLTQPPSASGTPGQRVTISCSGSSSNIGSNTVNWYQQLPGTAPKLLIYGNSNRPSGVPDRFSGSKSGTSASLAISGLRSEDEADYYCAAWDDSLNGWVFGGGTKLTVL
notes: as for B1
Take B4: the binding result in [1], in test [2] and in test [3] was “no binding” throughout. The “ELISA signal to background ratio” value in test [4], in test [5] and in [6] was more than 5 ratio throughout.

B5: TPP-1398 (antibody, human IgG1, lambda, V domains shown)
VH: EVQLLESGGGLVQPGGSLRLSCAASGFTFSSYAMSWVRQAPGKGLEWVSAISRSGGSTYYADSVKGRFTISRDNSKNTLYLQMNSLRAEDTAVYYCARVRYIWNEGDWFDPWGQGTLVTVSS
VL: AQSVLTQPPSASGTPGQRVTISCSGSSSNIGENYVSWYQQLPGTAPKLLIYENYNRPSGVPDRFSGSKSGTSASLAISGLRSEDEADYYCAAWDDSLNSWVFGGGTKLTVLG
notes: Matured variant of M048-D01
As a reminder, the EC50 is the concentration that produces a half-maximal response. Regarding B5, the EC50 in test [7] was determined as 0.2 nM; in test [8], 0.005 nM. The figures for the “fold EC50 reduction” value in test [9] and in [10] were more than 2000 fold and 39 fold, respectively.

B6: TPP-1400 (antibody, human IgG1, lambda, V domains shown)
VH: EVQLLESGGGLVQPGGSLRLSCAASGFTFSSYAMSWVRQAPGKGLEWVSAISRSGGSTYYADSVKGRFTISRDNSKNTLYLQMNSLRAEDTAVYYCARVRYIWNEGDWFDPWGQGTLVTVSS
VL: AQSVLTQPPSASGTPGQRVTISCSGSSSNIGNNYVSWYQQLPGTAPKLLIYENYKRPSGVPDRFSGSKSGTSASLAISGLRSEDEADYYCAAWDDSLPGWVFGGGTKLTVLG
notes: Matured variant of M048-D01
On to B6, for which the figures for the EC50 in test [7] and in test [8] were 0.48 nM and 0.009 nM, respectively. The “fold EC50 reduction” value in test [9] is more than 1100 fold; in test [10], 17 fold.

B7: TPP-1401 (antibody, human IgG1, lambda, V domains shown)
VH: EVQLLESGGGLVQPGGSLRLSCAASGFTFSSYAMSWVRQAPGKGLEWVSAISKSGGSTFYADSVKGRFTISRDNSKNTLYLQMNSLRAEDTAVYYCARVRYIWNEGDWFDPWGQGTLVTVSS
VL: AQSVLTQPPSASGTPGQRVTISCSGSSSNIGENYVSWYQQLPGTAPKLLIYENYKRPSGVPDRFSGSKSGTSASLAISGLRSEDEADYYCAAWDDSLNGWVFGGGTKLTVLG
notes: Matured variant of M048-D01
As for B7, the EC50 in [7] is 0.2 nM; in [8], 0.006 nM. For the same molecule, the “fold EC50 reduction” value in [9] was more than 1700 fold; in test [10], 39 fold.
